B1: peptide-displaying phage 550-F11 (peptide)
peptide: AGQFYCSGPPTFQCIMIGT
B2: peptide-displaying phage 547-H03 (peptide)
peptide: AGETFCSGWPTFECMQWGT
notes: on M13 phage
B3: peptide-displaying phage 470-C02 (peptide)
peptide: AGFWDCGWMMQDCHMHGT
notes: on M13 phage
B4: peptide-displaying phage 546-E02 (peptide)
peptide: GSHHTCLDGFAGWRCTEVAP
notes: on M13 phage
B5: peptide-displaying phage 443-D04 (peptide)
peptide: GSMLGCLFEHQNKYDCYVLAP
notes: on M13 phage
B6: peptide-displaying phage 274-B07 (peptide)
peptide: AGETVCYWLNGWFCVDDGT
notes: on M13 phage
B7: peptide-displaying phage 115-G02 (peptide)
peptide: AQDPGFSKHSMGHGYPSKMNWG
notes: on M13 phage
B8: peptide-displaying phage 453-A05 (peptide)
peptide: GSGDPCSPGPSINGHCSVMAP
notes: on M13 phage
B9: peptide-displaying phage 92-B05 (peptide)
peptide: AQFDRYWHFAWMDVSFSSGQSG
notes: on M13 phage
B10: peptide-displaying phage 549-G05 (peptide)
peptide: GDLLVCKFDDKFWTETCEWADP
notes: on M13 phage
B11: peptide-displaying phage 545-A09 (peptide)
peptide: AGLPKCSGPPWFSCYYGGT
notes: on M13 phage
B12: peptide-displaying phage 336-D07 (peptide)
peptide: AGYSVCKGYPSFECAFFGT
notes: on M13 phage

molecular target: T1, cMet-Fc fusion protein (human, UniProt P08581 25-932); test: phage ELISA on cMet-Fc, competitor HGF 500 ng/mL
T1 construct: extracellular domain; also called soluble cMet-Fc fusion protein; cMet-Fc (R&D Systems); not shown: Fc part, not described
Protocol: (§1) These assays were conducted using the peptide-displaying phage discovered from the initial selection and screening campaigns using the first generation peptide libraries. Briefly, 96-well plates were coated overnight at 4 C with 0.5 μg/mL of cMet-Fc fusion protein or TRAIL-Fc fusion protein (background). The plates were blocked for 2 hours at 37 C with 3% BSA in PBST. […] This was followed by an addition of 30 μL of peptide-displaying phage overnight culture to each well. The plates were incubated for 2 hours at room temperature, washed with PBST and cMet-binding peptide-displaying phage was detected using an HRP-conjugated anti-M13 antibody.

T1 sequence (P08581 25-932): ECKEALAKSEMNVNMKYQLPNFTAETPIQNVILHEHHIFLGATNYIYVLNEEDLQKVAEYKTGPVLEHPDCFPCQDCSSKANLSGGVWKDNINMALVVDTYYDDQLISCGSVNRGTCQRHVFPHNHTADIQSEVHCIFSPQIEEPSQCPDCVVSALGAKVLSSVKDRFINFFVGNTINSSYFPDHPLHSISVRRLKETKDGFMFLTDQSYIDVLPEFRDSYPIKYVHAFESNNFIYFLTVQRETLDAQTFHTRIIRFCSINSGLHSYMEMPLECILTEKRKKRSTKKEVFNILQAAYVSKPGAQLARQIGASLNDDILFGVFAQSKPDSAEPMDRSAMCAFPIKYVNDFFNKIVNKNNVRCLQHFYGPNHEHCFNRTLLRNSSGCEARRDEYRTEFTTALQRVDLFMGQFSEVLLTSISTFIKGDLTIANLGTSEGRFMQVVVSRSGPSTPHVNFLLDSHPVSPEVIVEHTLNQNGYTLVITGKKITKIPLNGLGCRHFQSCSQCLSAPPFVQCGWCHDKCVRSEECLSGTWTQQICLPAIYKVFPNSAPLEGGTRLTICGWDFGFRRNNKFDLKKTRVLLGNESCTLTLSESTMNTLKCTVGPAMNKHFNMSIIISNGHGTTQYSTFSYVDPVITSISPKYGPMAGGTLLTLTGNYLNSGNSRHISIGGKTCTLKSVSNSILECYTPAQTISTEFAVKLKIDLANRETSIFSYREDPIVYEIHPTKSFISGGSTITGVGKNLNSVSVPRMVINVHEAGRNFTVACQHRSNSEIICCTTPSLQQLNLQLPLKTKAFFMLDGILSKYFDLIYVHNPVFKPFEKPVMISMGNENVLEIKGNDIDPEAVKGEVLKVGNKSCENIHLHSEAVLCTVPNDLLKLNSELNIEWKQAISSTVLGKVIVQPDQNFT

Row | Binder | % of binding in the absence of HGF
1 | B1 | 23%
2 | B2 | 43%

molecular target: T1, cMet-Fc fusion protein; test: phage protein ELISA, cMet-Fc vs TRAIL-Fc
Protocol: Protein phage ELISAs using peptide-displaying phage isolates from the various selection campaigns were performed to determine specificity of the peptides for cMet versus an unrelated Fc-fusion protein (TRAIL-Fc). Briefly, 384-well plates were coated overnight at 4 C with 0.5 μg/mL of cMet-Fc fusion protein or TRAIL-Fc fusion protein (background). The plates were blocked for 2 hours 37 C with 3% (w/v) BSA in PBS containing 0.05% (v/v) Tween-20 (PBST). The plates were washed with PBST and 100 μL of peptide-displaying phage were added to each well. The plates were incubated for 2 hours at room temperature and washed with PBST. cMet-binding peptide-displaying phage were detected using an HRP-conjugated anti-M13 antibody.

Row | Binder | fold over background
3 | B1 | 1.4 fold
4 | B3 | 36.9 fold
5 | B4 | 40.4 fold
6 | B5 | 3 fold

molecular target: T1, cMet-Fc fusion protein; test: phage ELISA on cMet-Fc, competitor HGF 100 ng/mL
Protocol: as §1

Row | Binder | % of binding in the absence of HGF
7 | B6 | 343%
8 | B1 | 58%
9 | B7 | 57%
10 | B8 | 514%

molecular target: T2, human cMet on 3T3 cells (human, UniProt P08581 25-1390); test: phage whole cell ELISA, 3T3 human cMet vs 3T3
T2 construct: whole, on cells; also called cell surface-expressed human cMet
Protocol: Whole cell ELISAs were performed using 3T3 cells that over-express human cMet. […] Briefly, 96-well plates were seeded with 10⁵ cells per well. The plates were centrifuged for 5 minutes at 1600 rpm to pellet the cells. The resulting cell layer was fixed with 0.1% (v/v) glutaraldehyde for 12 minutes at 37 C. […] Peptide-displaying phage also were blocked in the above solution for 1 hour at 37 C. 100 μL of blocked phage was then added to each well and the plates were incubated for 1 hour at room temperature. The plates were washed with PBST. cMet-binding peptide-displaying phage were detected using an HRP-conjugated anti-M13 antibody.

T2 sequence (P08581 25-1390): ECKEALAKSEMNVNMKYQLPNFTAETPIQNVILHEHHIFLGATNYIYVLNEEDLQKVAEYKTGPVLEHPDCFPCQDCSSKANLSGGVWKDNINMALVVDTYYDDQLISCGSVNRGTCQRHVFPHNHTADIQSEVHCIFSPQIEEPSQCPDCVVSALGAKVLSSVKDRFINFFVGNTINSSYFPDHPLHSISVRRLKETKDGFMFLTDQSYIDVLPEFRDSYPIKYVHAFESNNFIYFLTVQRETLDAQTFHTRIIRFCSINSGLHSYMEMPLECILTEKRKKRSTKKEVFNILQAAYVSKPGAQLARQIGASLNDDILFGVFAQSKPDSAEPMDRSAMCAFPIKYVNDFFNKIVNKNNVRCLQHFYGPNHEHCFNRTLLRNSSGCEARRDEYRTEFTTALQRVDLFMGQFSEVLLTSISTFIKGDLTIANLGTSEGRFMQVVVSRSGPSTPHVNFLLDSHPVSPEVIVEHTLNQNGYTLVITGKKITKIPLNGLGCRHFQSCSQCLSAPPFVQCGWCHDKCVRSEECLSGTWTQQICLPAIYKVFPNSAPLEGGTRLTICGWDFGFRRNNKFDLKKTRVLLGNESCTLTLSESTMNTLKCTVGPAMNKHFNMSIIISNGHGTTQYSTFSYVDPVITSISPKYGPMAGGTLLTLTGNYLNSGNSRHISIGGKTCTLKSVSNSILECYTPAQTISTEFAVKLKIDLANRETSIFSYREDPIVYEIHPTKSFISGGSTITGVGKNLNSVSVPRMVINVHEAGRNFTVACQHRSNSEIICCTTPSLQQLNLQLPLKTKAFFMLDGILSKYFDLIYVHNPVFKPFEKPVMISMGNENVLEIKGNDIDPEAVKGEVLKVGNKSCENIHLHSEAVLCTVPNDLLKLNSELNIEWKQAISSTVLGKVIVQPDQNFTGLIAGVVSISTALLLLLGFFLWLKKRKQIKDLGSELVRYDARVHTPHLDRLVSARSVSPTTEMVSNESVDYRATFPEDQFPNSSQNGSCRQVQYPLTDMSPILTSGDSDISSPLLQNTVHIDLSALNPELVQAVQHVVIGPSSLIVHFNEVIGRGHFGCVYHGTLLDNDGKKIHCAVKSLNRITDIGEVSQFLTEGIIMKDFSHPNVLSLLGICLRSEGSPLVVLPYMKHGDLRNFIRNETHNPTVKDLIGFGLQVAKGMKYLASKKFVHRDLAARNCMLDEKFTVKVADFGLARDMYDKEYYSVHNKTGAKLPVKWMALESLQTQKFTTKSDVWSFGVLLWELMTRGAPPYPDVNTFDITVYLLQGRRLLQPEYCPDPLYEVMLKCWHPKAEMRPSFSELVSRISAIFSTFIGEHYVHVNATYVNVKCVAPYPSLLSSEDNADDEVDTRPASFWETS

Row | Binder | fold over background
11 | B1 | 1.23 fold
12 | B9 | 1.23 fold
13 | B10 | 14.5 fold
14 | B11 | 1.36 fold
15 | B12 | 14.3 fold

Source: US20110311446A1 (DYAX, published 2011)
